# Data as given in IntAct's records for PubMed 19103756.
# B1: Serine/threonine-protein kinase VRK1 (Homo sapiens), Q99986 (parent)
# chain: MPRVKAAQAGRQSSAKRHLAEQFAVGEIITDMAKKEWKVGLPIGQGGFGCIYLADMNSSESVGSDAPCVVKVEPSDNGPLFTELKFYQRAAKPEQIQKWIRTRKLKYLGVPKYWGSGLHDKNGKSYRFMIMDRFGSDLQKIYEANAKRFSRKTVLQLSLRILDILEYIHEHEYVHGDIKASNLLLNYKNPDQVYLVDYGLAYRYCPEGVHKEYKEDPKRCHDGTIEFTSIDAHNGVAPSRRGDLEILGYCMIQWLTGHLPWEDNLKDPKYVRDSKIRYRENIASLMDKCFPEKNKPGEIAKYMETVKLLDYTEKPLYENLRDILLQGLKAIGSKDDGKLDLSVVENGGLKAKTITKKRKKEIEESKEPGVEDTEWSNTQTEEAIQTRSRTRKRVQK
# Variants of: B1
# Conditions: with plk3_human PLK3, Q9H4B4
# Sequence of plk3_human PLK3, Q9H4B4 (Q9H4B4 whole entry, looked up): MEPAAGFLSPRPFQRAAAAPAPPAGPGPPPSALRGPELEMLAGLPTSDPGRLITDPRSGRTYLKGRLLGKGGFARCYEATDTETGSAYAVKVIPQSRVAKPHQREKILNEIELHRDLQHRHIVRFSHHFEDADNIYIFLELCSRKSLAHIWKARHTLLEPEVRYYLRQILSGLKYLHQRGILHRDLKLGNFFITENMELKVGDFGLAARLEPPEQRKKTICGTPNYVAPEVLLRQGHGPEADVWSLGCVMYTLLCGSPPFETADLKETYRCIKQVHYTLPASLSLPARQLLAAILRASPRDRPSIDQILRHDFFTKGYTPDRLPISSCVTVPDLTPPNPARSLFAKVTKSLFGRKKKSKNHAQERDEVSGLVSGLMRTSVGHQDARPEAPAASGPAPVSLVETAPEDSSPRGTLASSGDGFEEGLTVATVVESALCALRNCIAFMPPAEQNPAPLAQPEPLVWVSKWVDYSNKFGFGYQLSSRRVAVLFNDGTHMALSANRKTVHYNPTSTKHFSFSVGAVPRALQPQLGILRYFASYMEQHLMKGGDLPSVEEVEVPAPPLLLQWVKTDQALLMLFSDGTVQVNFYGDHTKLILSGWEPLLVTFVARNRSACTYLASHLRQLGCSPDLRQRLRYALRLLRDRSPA
row,Variant,effect of a mutation on the interaction
1,MPRVKAAQAGRQSSAKRHLAEQFAVGEIITDMAKKEWKVGLPIGQGGFGCIYLADMNSSESVGSDAPCVVKVEPSDNGPLFTELKFYQRAAKPEQIQKWIRTRKLKYLGVPKYWGSGLHDKNGKSYRFMIMDRFGSDLQKIYEANAKRFSRKTVLQLSLRILDILEYIHEHEYVHGDIKASNLLLNYKNPDQVYLVDYGLAYRYCPEGVHKEYKEDPKRCHDGTIEFTSIDAHNGVAPSRRGDLEILGYCMIQWLTGHLPWEDNLKDPKYVRDSKIRYRENIASLMDKCFPEKNKPGEIAKYMETVKLLDYTEKPLYENLRDILLQGLKAIGSKDDGKLDLAVVENGGLKAKTITKKRKKEIEESKEPGVEDTEWSNTQTEEAIQTRSRTRKRVQK [S342A],disrupting interaction
